Laboratory results from US20240317841A1.

Tests used:
[1] = target: H17 (Influenza A virus); assay: FACS, HA on mammalian cells; 2nd only 4.1
[2] = target: H18 (Influenza A virus); assay: flow cytometry, HA on mammalian cells; mock cells 0.96 [cont'd]
[3] = target: H15 (Influenza A virus); assay: as above
[4] = target: H16 (Influenza A virus); assay: as above
[5] = target: H14 (Influenza A virus); assay: as above
[6] = target: H17 (Influenza A virus); assay: as above
[7] = target: H7 hemagglutinin (influenza A virus); assay: BLI, HA-7; printed as kdis
[8] = target: H18 (Influenza A virus); assay: FACS, HA on mammalian cells; 2nd only 5.5
[9] = target: HA from an H1N1 Swine Eurasian avian-like (EA) strain, A/Swine/Jiangsu/J004/2018 (influenza A virus (H1N1, A/Swine/Jiangsu/J004/2018)); assay: flow cytometry, HA on mammalian cells; mock 7.62 [Cont'd]
[10] = target: HA from an H1N1 Swine Eurasian avian-like (EA) strain, A/Swine/Jiangsu/J004/2018 (influenza A virus (H1N1, A/Swine/Jiangsu/J004/2018)); assay: flow cytometry, HA on mammalian cells; mock 4.41
[11] = target: HA from an H1N1 Swine Eurasian avian-like (EA) strain, A/Swine/Jiangsu/J004/2018 (influenza A virus (H1N1, A/Swine/Jiangsu/J004/2018)); assay: flow cytometry, HA on mammalian cells; mock 3.31 [Cont'd]
[12] = target: H1-CAL (Influenza A virus); assay: FACS, HA on mammalian cells; 2nd only 7.4
[13] = target: H5 hemagglutinin (influenza A virus); assay: BLI, HA-5; printed as kdis
[14] = target: H4 (Influenza A virus); assay: FACS, HA on mammalian cells; 2nd only 11
[15] = target: H1-SC (Influenza A virus); assay: FACS, HA on mammalian cells; 2nd only 7.5
[16] = target: H7 hemagglutinin (influenza A virus); assay: BLI, HA-7
[17] = target: H16 (Influenza A virus); assay: FACS, HA on mammalian cells; 2nd only 6.9
[18] = target: H15 (Influenza A virus); assay: FACS, HA on mammalian cells; 2nd only 12
[19] = target: H13 (Influenza A virus); assay: FACS, HA on mammalian cells; 2nd only 12
[20] = target: H14 (Influenza A virus); assay: FACS, HA on mammalian cells; 2nd only 12
[21] = target: HA from an H1N1 Swine Eurasian avian-like (EA) strain, A/Swine/Jiangsu/J004/2018 (influenza A virus (H1N1, A/Swine/Jiangsu/J004/2018)); assay: flow cytometry, HA on mammalian cells; mock 4.30
[22] = target: H5 hemagglutinin (influenza A virus); assay: BLI, HA-5
[23] = target: H4 (Influenza A virus); assay: flow cytometry, HA on mammalian cells; mock cells 0.96
[24] = target: H8 (Influenza A virus); assay: as above
[25] = target: H12 (Influenza A virus); assay: as above
[26] = target: H13 (Influenza A virus); assay: as above
[27] = target: H10 (Influenza A virus); assay: as above
[28] = target: H11 (Influenza A virus); assay: as above
[29] = target: H8 (Influenza A virus); assay: FACS, HA on mammalian cells; 2nd only 7.9
[30] = target: H11 (Influenza A virus); assay: FACS, HA on mammalian cells; 2nd only 8.1
[31] = target: H12 (Influenza A virus); assay: FACS, HA on mammalian cells; 2nd only 9.7
[32] = target: H10 (Influenza A virus); assay: FACS, HA on mammalian cells; 2nd only 8.7

B1: FHF11 (antibody, V domains shown)
VH: QVQLQQSGPGLVKPSQTLSVTCGISGDSVSSHSAAWNWIRQSPSRGLEWLGRTYYRSKWYNDYAVSVKSRITINPDTSKNQFSLQLISVTPEDTAVYYCARVGAMTFGLLTGGMDVWGQGTTVTVSS
VL: EIVLTQSPGTQSLSPGERATLSCRASQSLSRSYLAWYQQRPGKPPRLLIYGASSRATGIPDRFSGSGSGTDFSLTISSLEPEDSAMYFCQYYGDSPLFSFGPGTKVDIK
In the case of B1, the % cells binding to HA [1] is reported as 82%, the percent of cells in the gate [2] is reported as 94.3 and the percent of cells in the gate [3] is reported as 75.6. The percent of cells in the gate [4] was 23.2, the percent of cells in the gate [5] was 75.2 and the percent of cells in the gate [6] was 98.2. The koff [7] was 4.95e-05 s⁻¹, the % cells binding to HA [8] was 80% and the Alexa 647-A+ (percent of cells) at 0.4 µg/ml [9] was 84.5. The Alexa 647-A+ (percent of cells) at 10 µg/ml [10] was 90.7, the Alexa 647-A+ (percent of cells) at 2 µg/ml [11] was 89.2 and the % cells binding to HA [12] was 88%. The koff [13] was < 1e-07 s⁻¹, the % cells binding to HA [14] was 54% and the % cells binding to HA [15] was 83%. It also gave a Kd [16] of 2.03 nM, a kon [16] of 24400 M⁻¹ s⁻¹ and a % cells binding to HA [17] of 20%. It also gave a % cells binding to HA [18] of 76%, a % cells binding to HA [19] of 79% and a % cells binding to HA [20] of 79%. For the same binder, the Alexa 647-A+ (percent of cells) at 50 µg/ml [21] was 90.7, the Kd [22] was < 1 pM and the kon [22] was 19900 M⁻¹ s⁻¹. For the same binder, the percent of cells in the gate [23] was 40.6, the percent of cells in the gate [24] was 89.2 and the percent of cells in the gate [25] was 79.1. The percent of cells in the gate [26] was 75.8, the percent of cells in the gate [27] was 89.7 and the percent of cells in the gate [28] was 42.7. For the same binder, the % cells binding to HA [29] was 80%, the % cells binding to HA [30] was 62% and the % cells binding to HA [31] was 86%. The % cells binding to HA [32] was 82%.
